Results taken from publication PMC13696528 (2026).
No end group written: not given here.

Molecular target: PD-L1 (UniProt Q9NZQ7)
Experiment: SPR

PD-L1, sequence (Q9NZQ7 19-238): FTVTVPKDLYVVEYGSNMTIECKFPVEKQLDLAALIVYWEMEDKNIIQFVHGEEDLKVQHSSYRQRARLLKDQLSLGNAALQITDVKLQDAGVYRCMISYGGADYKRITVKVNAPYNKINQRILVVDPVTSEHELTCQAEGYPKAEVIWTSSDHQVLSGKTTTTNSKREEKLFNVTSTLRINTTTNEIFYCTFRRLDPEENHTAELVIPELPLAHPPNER

Kd: 27.8 nM
B1: PSP (PSP@IR-CF3 nanofiber) (peptide)
chain: NTGYFYGDQ
modifications: also: co-assembled nanofiber with IR-CF3
